# US20230279131A1
# Positions count from the first letter of the chain named.
# T1: human IL2Rγ expressed on cells (human) (UniProt P31785)
# T1 sequence (looked up): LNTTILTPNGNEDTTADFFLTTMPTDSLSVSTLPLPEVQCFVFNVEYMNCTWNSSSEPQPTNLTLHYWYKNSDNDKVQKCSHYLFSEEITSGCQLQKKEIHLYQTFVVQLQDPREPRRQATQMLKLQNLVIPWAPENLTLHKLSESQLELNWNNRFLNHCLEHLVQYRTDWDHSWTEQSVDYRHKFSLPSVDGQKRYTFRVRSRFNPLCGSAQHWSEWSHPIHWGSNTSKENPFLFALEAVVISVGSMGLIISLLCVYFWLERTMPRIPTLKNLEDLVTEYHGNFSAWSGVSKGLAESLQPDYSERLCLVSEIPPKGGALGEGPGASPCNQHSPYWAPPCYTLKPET
# T2: human IL-2Rγ expressed on cells (NK-92, Jurkat) (human) (UniProt P31785)
# T2 sequence (looked up): T1 sequence (looked up)
# T3: mouse IL-2Rγ expressed on cells (MC/9) (mouse) (UniProt P34902)
# T3 sequence (looked up): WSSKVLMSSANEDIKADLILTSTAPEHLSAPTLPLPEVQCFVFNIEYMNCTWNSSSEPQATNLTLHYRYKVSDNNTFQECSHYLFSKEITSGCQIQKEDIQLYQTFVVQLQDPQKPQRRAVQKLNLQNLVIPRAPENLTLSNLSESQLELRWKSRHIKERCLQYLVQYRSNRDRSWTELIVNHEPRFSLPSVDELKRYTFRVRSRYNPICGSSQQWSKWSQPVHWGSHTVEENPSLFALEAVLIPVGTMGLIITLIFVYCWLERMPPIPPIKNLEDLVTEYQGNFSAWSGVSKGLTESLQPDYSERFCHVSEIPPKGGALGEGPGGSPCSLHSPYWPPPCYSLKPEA
# B1: human IL-7 (ligand, UniProt P13232 26-177, looked up)
# chain: DCDIEGKDGKQYESVLMVSIDQLLDSMKEIGSNCLNNEFNFFKRHICDANKEGMFLFRAARKLRQFLKMNSTGDFDLHLLKVSEGTTILLNCTGQVKGRKPAALGEAQPTKSLEENKSLKEQKKLNDLCFLKRLLQEIKTCWNKILMGTKEH
# B2: H4H12899P (antibody, human IgG4 S228P, kappa, V domains shown)
# VH: QVQLVESGGDLVKPGGSLRLSCATSGFTFSDFYMTWIRQAPGKGLEWISYISNSGSIVKYADSVKGRFTISRDNAKNSLYLQMNSLRAEDTAIYYCARFYGDRWGQGTLVTVSS
# VL: DIQLTQSPSFLSASVGDRVTITCWASQGISTFLAWYQQKPGKAPKLLIYAASTLQSGVPSRFSGSGSGTDFTLTISSLQPEDFATYHCQQLNNYPWTFGQGTKVEIKR
# B3: H4H12900P (antibody, human IgG4 S228P, kappa, V domains shown)
# VH: QVQLVESGGGLVKPGGSLRLSCEASGFTFNDFYMTWIRQAPGKGLEWIAYISKSGDKMRYADSVKGRFSTSRDNAKNSLSLQMNSLRAEDTAVYYCARFYGDIWGQGTLVTVSS
# VL: B2 VL with G28D, T31S, A34V, K45N, T53A, D70E, T85S, H87Y, Q89E
# B4: H4H12857P (antibody, human IgG4 S228P, kappa, V domains shown)
# VH: EVQLVESGGGVVRPGGSLRLSCAASGFTFDDFDMSWVRQGPGKGLEWVSGINWHGSSTGYADSVKGRFTISRDNAKNSLYLQMSSLRAEDTALYHCVRGGTIVGATTPLDYWGQGTLVTVSS
# VL: DIQMTQSPSSLSASVGDRVTMTCRASRTISSYLSWYQQKSGKVPNLLIFGASSLQSGVPSRFSASGSGTDFTLIISSLQPEDFATYYCQQSYSSPLTFGGGTKVEIKR
# B5: H4H12858P (antibody, human IgG4 S228P, kappa, V domains shown)
# VH: EVQLVESGGDLVQPGGSLRLSCTASGFIFRNYAMNWVRQAPGKGLEWLSGILGSNDNTYYVDSVKGRFTISRDNSRNTLYLQMNSLRAEDSAVYYCAKGDAGGFDYWGQGTLVTVSS
# VL: DVVMTQSPLSLPVILGQPASISCRSSQSLVSSDGNTYLNWFQQRPGQSPRRLIYKVSNRDSGVPDRFSGSGSGTDFTLKISRVEAEDVGAYYCMQGSYWPPTFGQGTKLEIKR
# B6: H4H12863P (antibody, human IgG4 S228P, kappa, V domains shown)
# VH: QVQLVESGGGVVQPGRSLRLSCTASGFTFRSYDMYWVRQAPGKGLEWVSVITYDGNNKYYADSVKGRFTISRDNSKNTLFLQMSSLRPEDTAVYYCAKRGLIWVGESFDYWGQGTLVTVSS
# VL: DIQMTQSPSTLSASVGDRVTITCRASQSINSWLAWYQQKPGKAPNLLIYKASSLESGVPSRFSGSGSGTEFTLTISSLQPDDFATYYCQQYKSYSWTFGQGTKVEIKR
# B7: H4H12874P (antibody, human IgG4 S228P, kappa, V domains shown)
# VH: QVQLVESGGGVVQPGRSLRLSCAASGFNFRNFGMHWVRQAPGKGLEWVAGILYDGSSKYYADSVKDRFTISRDNSKNTLFLQMNSLRAEDTAMYYCAKEEDTAMVPFDSWGPGTLVTVSS
# VL: B2 VL with T31S, F32Y, K45T, D70E, T85S, H87Y, N92K, N93S, W96L, Q100G
# B8: H4H13538P (antibody, human IgG4 S228P, kappa, V domains shown)
# VH: EVQLVESGGGLVQPGGSLGLSCAASGFTFSNYAMSWVRQAPGKGLEWVSAVSGGGGGTYYADSVKGRFTISRDNSKNTVLLQMNSLRAEDTAVYYCARGRTGGLDYWGPGTLVTVSS
# VL: B5 VL with L15F, S31D, F41L, K55E, K79T, A90I, S97T, Y98R, Q105G, L109V
# B9: H4H13541P (antibody, human IgG4 S228P, kappa, V domains shown)
# VH: EVQLVESGGGVVRPGGSLRLSCAASGFIFDDYDMSWVRQPPGRGLEWVSGIDWFGGTRGYADSMKGRFTISRDNAKNSLYLQMNSLRVEDTAFYYCARGGAIVGAVTPFDYWGQGTLVTVSS
# VL: DIQMTQSPSSLSASVGNRVTLSCRASQSINTYLSWYQQRPGKAPKLLIYAASSLQSGVPSRFSGSGAGTDFTLTISSLQPEDFATYYCQQSYSAPLTFGGGTKVEIKR
# Experiments:
# [1] = target: T1, human IL2Rγ expressed on cells (human); test: cell-based or functional assay
# [2] = target: T2, human IL-2Rγ expressed on cells (NK-92, Jurkat) (human); test: flow cytometry on Jurkat cells (endogenous human IL-2Rg), antibody 10 ug/ml
# [3] = target: T3, mouse IL-2Rγ expressed on cells (MC/9) (mouse); test: flow cytometry on MC/9 cells (endogenous mouse IL-2Rg), antibody 10 ug/ml
# [4] = target: Human IL2Rγ extracellular domain expressed with a C-terminal mouse IgG2a Fc tag (human); test: SPR Biacore 4000, mAb captured by anti-human Fc, 25 C
# [5] = target: T2, human IL-2Rγ expressed on cells (NK-92, Jurkat) (human); test: flow cytometry on NK-92 cells (endogenous human IL-2Rg), antibody 10 ug/ml
binder,measurement,setting,value
B1,EC50 [M] of ligand; NK92/hIL7R/STAT3-luc,[1],3.9e-11 M
B2,Binding Ratio (Sample over unstained MFIs),[2],1
same,Raw MFI,[2],114 MFI
same,Binding Ratio (Sample over unstained MFIs),[3],1
same,Raw MFI,[3],167 MFI
same,100 nM Ag Bound,[4],1 RU
same,Binding Ratio (Sample over unstained MFIs),[5],18
same,Raw MFI,[5],2670 MFI
B3,Binding Ratio (Sample over unstained MFIs),[2],1
same,Raw MFI,[2],110 MFI
same,Binding Ratio (Sample over unstained MFIs),[3],1
same,Raw MFI,[3],128 MFI
same,100 nM Ag Bound,[4],4 RU
same,Binding Ratio (Sample over unstained MFIs),[5],28
same,Raw MFI,[5],4200 MFI
B4,Binding Ratio (Sample over unstained MFIs),[2],1
same,Raw MFI,[2],103 MFI
same,Binding Ratio (Sample over unstained MFIs),[3],1
same,Raw MFI,[3],198 MFI
same,Binding Ratio (Sample over unstained MFIs),[5],37
same,Raw MFI,[5],5490 MFI
B5,Binding Ratio (Sample over unstained MFIs),[2],1
same,Raw MFI,[2],99 MFI
same,Binding Ratio (Sample over unstained MFIs),[3],1
same,Raw MFI,[3],199 MFI
same,Binding Ratio (Sample over unstained MFIs),[5],2
same,Raw MFI,[5],228 MFI
B6,Binding Ratio (Sample over unstained MFIs),[2],13
same,Raw MFI,[2],1170 MFI
same,Binding Ratio (Sample over unstained MFIs),[3],1
same,Raw MFI,[3],185 MFI
same,Binding Ratio (Sample over unstained MFIs),[5],87
same,Raw MFI,[5],13000 MFI
B7,Binding Ratio (Sample over unstained MFIs),[2],6
same,Raw MFI,[2],507 MFI
same,Binding Ratio (Sample over unstained MFIs),[3],1
same,Raw MFI,[3],202 MFI
same,Binding Ratio (Sample over unstained MFIs),[5],44
same,Raw MFI,[5],6580 MFI
B8,Binding Ratio (Sample over unstained MFIs),[5],1
same,Raw MFI,[5],235 MFI
B9,Binding Ratio (Sample over unstained MFIs),[5],37
same,Raw MFI,[5],7050 MFI
